From the nanobody polyreactivity screen of Harvey et al. (2022)

Test: yeast display, Sf9 membrane polyspecificity reagent, FACS + sequencing; frameworks hold sequencing errors
Outline: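 Synthetic nanobody libraries on Saccharomyces cerevisiae BJ5465 were galactose-induced for 36–48 hours, stained 1 hour at 4 °C with 10% biotinylated, detergent-solubilized Sf9 membrane reagent and enriched on streptavidin microbeads. FACS then separated cells into low and high (top ~1%) gates by anti-HA (expression) and streptavidin (reagent binding) fluorescence. Genes were colony-PCR amplified, MiSeq 2 × 250 sequenced and CDR-length filtered. A clone's polyreactivity label is that of its gate of origin.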

Sequence	polyreactivity (PSR sort gate)
QVQLVESGGGLVQAGGSLRLSCAASGFTFGWYTMGWYRPAPGKERELVAAISLNGGSTYYADSVKGRFTISRDNAKNTVYLQMNSLKPEDTAVYYCAIGYRWPYYPYDYWGQGTQVTVSS	low polyreactivity
QDQLVESGGGLVQAGGSLRLSCAASGFIVHRYVMGWYRQAPGKERELVAAISSGGSTNYADSVKGRFTISRDNAKNSVYLQMTSLKPEDTAVYYCAADGFYYRNWGRFRYYYWGQGTQVNVSS	low polyreactivity
QVQLVESGGGLVQAGGSLRLSCAASGRTLWVYAMGWYRQAPGKERELVAAITSSGVSTDYADSVKGRFTISRDNAKNTVYLQINSLKPEDTAVYYCAKRYWSRYAQYDYWGQGTQVTVSS	low polyreactivity
QVQLVESGGGLVQAGGSLRLSCAASGFTLTLRYAMGWYRQAPGKERELVAAISSGGRTKYADSVKGRFTISRDNAKNTVYLQMNSLKPEDTAVYYCAADLYDPYHVYGYNYWGQGTQVTVSS	low polyreactivity
QVQLVESGGGLVQAGGSLRLSCAASGRTFFDYTMGWYRPAPGKERELVAAITGGDGSTYYADSVKGRFTISRDNAKNTVYLQMNSLKPEDTAVYYCAASVWYNPMDYWGQVTQVTVSS	low polyreactivity
QVQLVESGGGLVQAGGSLRLSCAASGRIFTKYAMGWYRQAPGKERELVATISKRSGSTYYADSVKGRFTISRDNAKNTVYLQMNSLKPEDTAVYYCARTVGYRTLLESDSWGQGTQVTVSS	high polyreactivity
QVQLVESGGGLVQAGGSLRLSCAASVFLPYTMGWYRQAPGKERELVAAITRGGSTYYADSVKGRFTISRDNAKNTVYLQMNSLKPEDTAVYYCAKRSTFAWRGYDYWGQGTEVTVSS	high polyreactivity
QVQLVESGGGLVQAGGSLRLSCAASGFTFLTNAMGWYRQAPGKERELVAAISSGGNTNYADSVKGRFTISRDNAKNTVYLQMNSLKPEDTAVYYCAADNDYLSSQVSYDYWGQGTQVTVSS	low polyreactivity
QVQLAESGGGLVQAGGSLRLSCAASGSTFVWYAMGWYRQAPGKEWELVAVIDWSGGSTSYADSVKGRFTISRDNAKNTVYFQMNSLKPEDTAVYYCAADYGHYYGLYYWGQGTQVTVSS	low polyreactivity
QVQLVESGGGLVQAGGSLRLSCAASGSIFRRTTQGGYRQAPGKERELVAAITYRGGSTYYADSVKGRFTISRDNAKNTVYFQMHSLKPEDTAVYYCARYHWYYPVSKSDSWGQGTQVTVSS	high polyreactivity
QVQLVESGGGLVQAGGSLRLSCAASGFDGYAMGWYRQAPGKERELVAASSWSGSRTYYADSVKGRFTISRDNAKNTVYLQMNSLKPEDTAVYYCNAVLRYSIYPSYSFSYVGYYYWGHGTQVTVSS	high polyreactivity
QVQLVESGGGLVQAGGSLRLSCAASGFIFYRNTMGWSRQAPGKEREFVAAIRWRGGSTYYADSVKGRFTISRDNAKNTVYLQMNSLKPEDTAVYYCAADTRPGYSGFEYWGQGTQVTVSS	high polyreactivity
QVHLVDSGVGLDQAGGILRLSCAASGSTFGFYALGWYRQSPGKERELVAAINSTGGSTYYADSVKGRFTISRDNAKNTVYLQMNSLKPEDTAVYYCNVDLYSLYDWGQGTQVTVSS	high polyreactivity
QVQLVESAGGLVQAGGILRLRCAASGFTFTSNAMGWYRQAPGKEREFVADISNIGGDTTYADSVKGRFTISRDNAKNTVYLQMNSLNPEDTAVYYCNADFAFIENDYCGQGTQVTVSS	low polyreactivity
QVQLVESGGGLVQAGGSLRLSCAASGQTFDWYAMGWYRQAPGKERELVAAITSVGSTYYADSVKGRFTISRDNAKNSVYLQMNSLKPEDTAVYYCAVEGVIWSFWPYEYWGQGTQVTVSS	high polyreactivity
QVQLVESGGGLVQAGGSLRLSCAPSGRISGWYAMGWYRQAPGKQRELVASISSSGGSTYYADSVKGRFTISRDNAKNSVYLQMNSLKPEDTAVYYCAVRRYNWSFYRGYDYWGQGTQVTVSS	high polyreactivity
